The subject of test [1] is CD11c+ dendritic cells of Tg+ mice. Briefly: Dendritic cell activation in DC-SIGN Tg+ mice (spleen, flow cytometry). The format is in vivo, mouse. The protocol:
Spleens were harvested 24 hours post dose and analyzed by flow cytometry to look at CD11c+ dendritic cells.
(Flow cytometry measures light scatter and fluorescence of single cells or particles in a stream.)

In test [2] the test system is transgenic mice expressing human DC-SIGN gene (Tg+). Briefly: Plasma cytokine production in transgenic mice expressing human DC-SIGN (ELISA / MesoScaleDiscovery). Type of test: in vivo, mouse. How it is done: FIGS. 5A-5E show exemplary data on DC-SIGN immunoconjugates inducing cytokine production in Tg+ mice. […] Plasma levels were analyzed by ELISA (IP-10 and IFNβ) or MesoScaleDiscovery Multiplex analysis (all other analytes). **** denotes p value of <0.0001 using an ANOVA with Tukey's test compared to Tg-2B2 hlgG1 DAPA C1 group.
Mice were bled 6 hours after dosing to collect plasma for analysis of circulating cytokine levels.
A general note: An ELISA detects its analyte on a solid surface through an enzyme-linked reagent.

For test [3], the target named is T1, human DC-SIGN (Homo sapiens, UniProt Q9NNX6).
T1 construct: expressed in transfected cells
T1 sequence (Q9NNX6 1-404): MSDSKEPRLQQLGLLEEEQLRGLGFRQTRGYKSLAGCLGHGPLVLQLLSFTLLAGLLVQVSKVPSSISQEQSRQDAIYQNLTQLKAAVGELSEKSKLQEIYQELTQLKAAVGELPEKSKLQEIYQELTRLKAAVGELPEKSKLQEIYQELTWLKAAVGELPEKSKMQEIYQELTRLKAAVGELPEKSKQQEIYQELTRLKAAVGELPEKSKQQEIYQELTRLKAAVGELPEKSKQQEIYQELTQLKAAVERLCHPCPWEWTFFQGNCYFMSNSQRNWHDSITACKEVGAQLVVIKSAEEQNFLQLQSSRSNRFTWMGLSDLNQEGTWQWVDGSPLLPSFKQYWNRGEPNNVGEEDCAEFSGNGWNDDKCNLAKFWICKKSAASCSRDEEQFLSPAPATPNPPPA
Description: FACS binding to CHO cells stably expressing human DC-SIGN. Conditions: FACS MFI, average. The protocol:
(§1) The affinity of various antibodies and ADCs to DC-SIGN and its species orthologues was determined using FACS. Purified IgGs were titrated to determine EC50 values for binding to cell surface expressed DC-SIGN.
(§2) For this purpose, human DC-SIGN expressing or cynomolgus monkey DC-SIGN expressing stable CHO cell lines or K562 expressing DC-SIGN or K562 expressing L-SIGN cell lines were checked for density and viability using VICELL (Beckman Coulter), and washed once with 4° C. PBS. Cells were stained with DAPI (0.5 ug/mL) diluted in PBS for 30 min on ice. Cells were diluted into 4° C. FACS buffer (PBS, 10 mM EDTA, 2% FBS). 125 μl of cells were seeded (10,000 cells/well) into 96-well v-bottom plates (Nunc cat#442587) and centrifuged for 4 min at 1500 rpm at 4° C. Supernatant was removed. Cells were incubated with a serial dilution of each anti-DC-SIGN antibody in FACS buffer at concentrations ranging across several logs with a top concentration no higher than 50 μg/mL for 60 minutes at 4° C. Following incubation, cells were spun down (1500 rpm, 4 min, 4° C.) and washed two times with FACS buffer. A fluorophore-conjugated anti-hFc gamma-AF-647 (Southern Biotechnology) detection antibody was added at 1:400 and samples were incubated for 1 h on ice in the dark. Following incubation, FACS buffer was added, and the cells were spun down (1500 rpm, 4 min, 4° C.) and washed two times with FACS buffer. After the final wash, cells were resuspended in Fixative Buffer (Biolegend, 420801) and 90 μl of FACS buffer followed by readout on the flow cytometry machine (BD LSRFortessa Cell Analyzer; Cat #647177). Geometric Mean fluorescence intensity (MFI) of live, single cells was calculated in Flowjo 10.4.2 and exported into Graphpad Prism7 for EC50 determination.

The target of a further test is T2, human L-SIGN (Homo sapiens, UniProt Q9H2X3).
T2 construct: expressed in transfected cells; host or cells: K562, retroviral transduction
T2 sequence (Q9H2X3 1-399): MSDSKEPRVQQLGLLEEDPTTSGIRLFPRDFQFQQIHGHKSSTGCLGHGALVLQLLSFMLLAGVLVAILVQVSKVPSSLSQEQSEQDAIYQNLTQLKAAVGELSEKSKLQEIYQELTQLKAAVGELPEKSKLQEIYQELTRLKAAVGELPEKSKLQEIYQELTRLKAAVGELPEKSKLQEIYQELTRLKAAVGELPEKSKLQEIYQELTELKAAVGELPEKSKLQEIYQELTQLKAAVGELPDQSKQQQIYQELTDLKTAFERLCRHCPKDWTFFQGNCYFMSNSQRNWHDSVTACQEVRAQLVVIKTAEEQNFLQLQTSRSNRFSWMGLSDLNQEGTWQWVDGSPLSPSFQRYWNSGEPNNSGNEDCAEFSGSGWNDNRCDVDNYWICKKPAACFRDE
Description: FACS binding to K562 cells expressing human L-SIGN (selectivity). The note with it: FACS MFI. The protocol:
as §1, §2
Selectivity was assessed by measuring apparent binding affinities to isogenic cell pairs engineered to overexpress DC-SIGN as well as cell lines expressing DC-SIGN paralog L-SIGN.

Test [4] deals with cynomolgus monkey DC-SIGN. Description: FACS binding to CHO cells stably expressing cynomolgus monkey DC-SIGN. The note with it: FACS MFI, average. The protocol:
as §1, §2
In a similar experiment the antibodies were tested for cross-reactivity using engineered isogenic matched cell line.

Test [5] deals with T1, human DC-SIGN. Description: FACS binding to K562 cells expressing human DC-SIGN. The note with it: FACS MFI. The protocol:
as §1, §2

Chain of cynomolgus monkey DC-SIGN (as listed by the source): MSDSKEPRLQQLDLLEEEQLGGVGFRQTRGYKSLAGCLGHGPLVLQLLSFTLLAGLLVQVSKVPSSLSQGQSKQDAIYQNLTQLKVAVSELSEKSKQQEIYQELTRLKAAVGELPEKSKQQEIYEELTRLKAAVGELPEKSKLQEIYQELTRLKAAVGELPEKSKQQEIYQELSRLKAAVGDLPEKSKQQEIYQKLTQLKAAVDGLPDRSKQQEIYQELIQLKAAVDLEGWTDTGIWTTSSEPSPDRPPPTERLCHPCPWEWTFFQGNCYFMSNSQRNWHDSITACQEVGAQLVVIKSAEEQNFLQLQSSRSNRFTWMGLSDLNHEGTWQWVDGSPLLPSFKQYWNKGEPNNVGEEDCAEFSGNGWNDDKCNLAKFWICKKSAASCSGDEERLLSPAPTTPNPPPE

B1: 2B2 (DAPA) DAR2 C1 (conjugate)
VH: QVQLVQSGAEVKKPGASVKVSCKASGYTFTNYGINWVRQAPGQRLEWMGYIYIGNDYTEYNERFKGRVTITSDTSASTAYMELSSLRSEDTAVYYCARLYYGSSLYSYAMDYWGQGTTVTVSS
VL: DIVMTQSPLSLPVTPGEPASISCRSSKSLLHSSGNTYLYWFLQKPGQSPQLLISRMSNLASGVPDRFSGSGSGTDFTLKISRVEAEDVGVYYCMQHLEYPYTFGGGTKVEIK
On to B1, for which, in test [1], the “CD86 upregulation on dendritic cells (DC activation)” value was “induced DC activation”. Further, in test [2], the “circulating plasma IL-12p70” value is listed as “induced” and the “circulating plasma IP-10” value is “induced”.

B2: 958N05 S93A: optimization of sequences by removal of post-translational modifications, non-preferred sites; substitutions made by site directed mutagenesis (antibody)
heavy: QVTLRESGPALVKPTQTLTLTCTFSGFSLSTSGISVSWIRQPPGKALEWLALIDWDDDKYYSTSLKTRLTISKDTSKNQVVLTMTNMDPVDTATYYCARTPSGSYGRYFDLWGRGTLVTVSSASTKGPSVFPLAPSSKSTSGGTAALGCLVKDYFPCPVTVSWNSGALTSGVHTFPAVLQSSGLYSLSSVVTVPSSSLGTQTYICNVNHKPSNTKVDKRVEPKSCDKTHTCPPCPAPELLGGPSVFLFPPKPKDTLMISRTPEVTCVVVAVSHEDPEVKFNWYVDGVEVHNAKTKPREEQYNSTYRVVSVLTVLHQDWLNGKEYKCKVSNKALAAPIEKTISKAKGQPREPQVYTLPPSREEMTKNQVSLTCLVKGFYPCDIAVEWESNGQPENNYKTTPPVLDSDGSFFLYSKLTVDKSRWQQGNVFSCSVMHEALHNHYTQKSLSLSPGK
light: DIQLTQSPSTLSASVGDRVTITCRASQSISNWLAWYQQKPGKAPKLLIYKASSLESGVPSRFTGSGSGTEFTLTISSLQPDDFATYYCQQYNAYWTFGQGTKVEIKRTVAAPSVFIFPPSDEQLKSGTASVVCLLNNFYPREAKVQWKVDNALQSGNSQESVTEQDSKDSTYSLSSTLTLSKADYEKHKVYACEVTHQGLSSPVTKSFNRGEC
For the molecule B2, in the test with human DC-SIGN [3], the “human DC-SIGN CHO EC50 (ug/mL) ave.” value stood at 0.13 µg/mL. Moreover, the “human L-SIGN K562 EC50” value in the test with human L-SIGN is above 10 µg/mL. In addition, in test [4], the “cyno DC-SIGN CHO EC50 (ug/mL) ave.” value was determined as 0.16 µg/mL. Besides, in the test with human DC-SIGN [5], the “human DC-SIGN K562 EC50” value amounted to 0.060 µg/mL.

B3: 960K03 N92Q: optimization of sequences by removal of post-translational modifications, non-preferred sites; substitutions made by site directed mutagenesis (antibody)
heavy: QVTLRESGPALVKPTQTLTLTCTFSGFSLSTGGMSVSWIRQPPGKALEWLALIDWDDDKYYSTSLKTRLTISKDTSKNQLVLTMTNMDPVDTATYYCARAHSGSYFDFWGQGTLVTVSSASTKGPSVFPLAPSSKSTSGGTAALGCLVKDYFPCPVTVSWNSGALTSGVHTFPAVLQSSGLYSLSSVVTVPSSSLGTQTYICNVNHKPSNTKVDKRVEPKSCDKTHTCPPCPAPELLGGPSVFLFPPKPKDTLMISRTPEVTCVVVAVSHEDPEVKFNWYVDGVEVHNAKTKPREEQYNSTYRVVSVLTVLHQDWLNGKEYKCKVSNKALAAPIEKTISKAKGQPREPQVYTLPPSREEMTKNQVSLTCLVKGFYPCDIAVEWESNGQPENNYKTTPPVLDSDGSFFLYSKLTVDKSRWQQGNVFSCSVMHEALHNHYTQKSLSLSPGK
light: DIQMTQSPSTLSASVGDRVTITCRASQRISNWLAWYQQKPGKAPKLLIYKASSLESGVPSRFSGSGSGTEFTLTISSLQPDDFATYYCQQFQSYWTFGQGTKVEIKRTVAAPSVFIFPPSDEQLKSGTASVVCLLNNFYPREAKVQWKVDNALQSGNSQESVTEQDSKDSTYSLSSTLTLSKADYEKHKVYACEVTHQGLSSPVTKSFNRGEC
In the case of B3, in the test with human DC-SIGN [3], the “human DC-SIGN CHO EC50 (ug/mL) ave.” value came out at 0.08 µg/mL. Also, the “human L-SIGN K562 EC50” value in the test with human L-SIGN is above 10 µg/mL. The “cyno DC-SIGN CHO EC50 (ug/mL) ave.” value in test [4] is 0.04 µg/mL. In addition, in the test with human DC-SIGN [5], the “human DC-SIGN K562 EC50” value amounted to 0.021 µg/mL.

For the origin of these results see patent US20210170043A1, “DC-SIGN ANTIBODY CONJUGATES COMPRISING STING AGONISTS” (NOVARTIS AG, priority 2018, published 2021).
